# Measured values as given in patent publication US20220296727A1, “Immunoconjugate” (DendroCyte BioTech Pty Ltd, priority 2019, published 2022).
# Tests used:
# dendritic cells = test: Activation marker expression on dendritic cells after LPS; assay type: cell-based, human; conditions: HLA-DR, CD11c, CD80, CD83; 200 pmol
# Experimental: The activity of DCR-2PBD on the upregulation of activation markers on DC was measured by incubating whole PBMC with DCR-2PBD or no antibody for […] before washing, followed by 12 hours of LPS stimulation. Control DC were not exposed to DCR-2PBD or LPS. Myeloid DC were gated out by excluding dead cells, Lin^+(CD3, CD20, CD19, CD56, CD14), then gating on HLA-DR^+ and CD11c^+ cells. The activation markers CD80 and CD83 were assessed via flow cytometry. The changes on activation were determined by comparing activated DC incubated with or without DCR-2PBD compared to inactivated DC.
# PBMC were incubated in complete RPMI media with or without DCR-2-PBD (200 pmol). After 12 hours, washed cells were incubated for a further 12 hours with or without LPS then phenotyped for the expression of activation markers on DC populations. MoDC were derived from CD14+ monocytes as described previously (Fromm et al. J Leukoc Biol. 2020; 107(2):323-339). DCR-2-PBD or isotype-PBD (200 pmol) were added for 72 hours prior to enumeration of live cells by flow cytometry.
# THP-1 = test: Cytotoxicity assay on THP-1 AML cell line; assay type: cell-based
# Experimental: (§1) Kinetic analysis was performed as above.
# (§2) DCR-2 and an isotype control mAb were conjugated to a PBD dimer toxin, to assess potential cytotoxicity. The cytotoxicity of DCR-2-PBD and the isotype-PBD were tested against CD300f+ and CD300f− cell lines and the results are shown in FIG. 6 and Table 2.
# [1] = system: human HSPC and myeloid cells; test: Humanised (CD34+ engrafted) NSG mouse model; assay type: in vivo; conditions: single dose 300 ug/kg, day 7
# Experimental: The humanised mouse model used frozen CD34^+ cells (>95% purity) isolated by positive selection (Miltenyi 130-046-702) according to the manufacturer's instructions from two pooled CB samples. Each NSG mouse was injected with 100,000 CD34+ cells 4 hours after receiving a 150cGy irradiation dose. Engraftment as determined by % human CD45+ cells in venous blood was assessed at 12 weeks. Mice were assigned to treatment groups to have similar means of human CD45+ percentage in the PB (10.16% DCR-2-PBD cohort and 10.74% isotype-PBD cohort). Mice were then injected with 300 ug/kg of DCR-2-PBD or isotype-PBD. Mice were euthanised on day 7 and human CD45+ cells from BM (bilateral femurs and tibias) and 300 μl blood were enumerated and phenotyped by flow cytometry.
# HL-60 cells = test: HL-60 leukemic xenograft model in NSG mice; assay type: in vivo, mouse
# Experimental: For the HL-60 leukemic model, NSG mice were irradiated with 200cGy 24 hours prior to intravenous administration of 5×10^6 HL-60 cells. On day 7, mice were injected with DCR-2-PBD, isotype-PBD or PBS and monitored for disease progression and survival. Mice were euthanised when their clinical score was ≥4 or on d70.
# On day 7, mice received a single injection of either PBS, or 300 μg/kg of CMRF-81PBD or DCR-2PBD, and their survival monitored.
# U937 cells = test: U937 subcutaneous xenograft model in NSG mice; assay type: in vivo, mouse; conditions: for tumour growth compared to isotype-PBD (300 ug/kg): intraperitoneal, once
# Experimental: NOD.Cg-Prkdc^scld//2rg^tm1Wjl/SzJ (NSG) mice obtained from Australian BioResources were housed under specific pathogen free conditions. In the subcutaneous model, 2×10^6 U937 cells were injected under the skin on the right flank. Tumours were measured daily with electronic calipers. When the mean volume of the tumours was >100 mm^3, DCR-2-PBD, isotype-PBD or PBS was injected intraperitoneally once. […] Tumour volume was measured until >1000 mm^3 when mice were euthanised as required by the ethics protocol.
# In the flank injection model 2×10^6 U937 cells were injected subcutaneously into NSG mice and the subsequent tumors were measured daily via caliper to calculate the volume. Mice were injected with 150 ug/kg of DCR-2ADC, Isotype-ADC or an equal volume of PBS on day 6. Mice were euthanized once the volumes reached 1000 mm^3. Survival and tumor size was recorded.
# To determine the effect of DCR-2PBD in a mouse model based on U937 cells, mice were injected subcutaneously with cell line U937. After 6 days, mice were administered PBS, […] of CMRF-81PBD or […] of DCR-2PBD intraperitoneally and monitored for tumour growth. Tumour volume and survival of the mice were assessed and the results are shown in FIGS. 17 and 18, respectively.
# HL-60 = test: Cytotoxicity assay on HL-60 AML cell line; assay type: cell-based
# Experimental: as §1, §2
molecule,measurement,setting,value
DCR-2PBD: anti-CD300f mAb DCR-2 conjugated to pyrrolobenzodiazepine dimer via Cathepsin B-cleavable linker MA-PEG4-VA-PBD; drug to antibody ratio 3.3 (conjugate) VH: MESGGGLVQPGGPLKLSCAASGFGFSGSWMSWVRQAPGKGLEWIGQINPDSSTINYTPSLKDKFIISRDNAKNTLYLQINKVRSEDTALYYCARRGFFEGYSAWFAYW VL: ILMTQTPKFLLVSAGDRVTITCKASQSVSNDVAWYQQKPGQSPSLLIYYASNRNTGVPDRFTGSGYETDFTFTISTVQAEDLAVYFCQQDYTSPWTFGGG,up-regulation of activation markers on dendritic cells after LPS,dendritic cells,does not prevent up-regulation of activation markers
same,IC50,THP-1,0.0294 nM
same,CD34+ cells as percentage of total human CD45+ cells,[1],3.09%
same,CD34+CD38-CD90+ cells as percentage of total human CD45+ cells,[1],0.16%
same,lymphocytes in the peripheral blood,[1],208.5 cells/μl
same,mean CD34+CD38-CD90+ cell count in BM,[1],0.05×10^4
same,myeloid cells in the peripheral blood,[1],0.31 cells/μl
same,human cells in mice surviving until day 70,HL-60 cells; 300 ug/kg,No human cells could be detected
same,animals surviving to the experiment endpoint,"HL-60 cells; 300 ug/kg, endpoint day 70",Six of 8
same,survival compared to isotype-PBD,HL-60 cells; single injection 300 ug/kg on day 7 (p=0.0058),significantly increased survival
same,survival compared to isotype-PBD (300 ug/kg),U937 cells; 150 ug/kg (p=0.0017),significantly increased
same,tumour growth compared to isotype-PBD (300 ug/kg),U937 cells; 150 ug/kg,delayed
same,survival compared to isotype-PBD (300 ug/kg),U937 cells; 300 ug/kg (p=0.0017),significantly increased
same,tumour growth compared to isotype-PBD (300 ug/kg),U937 cells; 300 ug/kg,delayed
same,IC50,HL-60,0.00544 nM
